Test results published in patent US20110286916A1 (published 2011).
Substitutions are numbered along the chain they refer to.

B1: N1wc158 (scFv, V domains shown)
VH: EVQLVQSGAEVKKPGASVKVSCKASGYNFTGYYMHWVRQAPGQGLEWMGWINPNSGGTNYAQKFQGRVTMTRDTSISTAYMELSRLRSDDTAVYYCATDSFDYWGRGTLVTVSS
VL: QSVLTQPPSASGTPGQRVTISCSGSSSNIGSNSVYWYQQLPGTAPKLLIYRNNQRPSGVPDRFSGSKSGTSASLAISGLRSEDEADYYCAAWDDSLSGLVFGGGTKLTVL
notes: phage scFv
B2: hN1S3-010 (scFv, V domains shown)
VH: B1 VH with T69I, R87T, L109M
VL: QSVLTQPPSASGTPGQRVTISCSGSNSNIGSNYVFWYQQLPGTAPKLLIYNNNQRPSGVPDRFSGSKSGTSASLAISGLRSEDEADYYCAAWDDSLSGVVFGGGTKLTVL
notes: phage scFv
B3: hN1S3-050 (scFv, V domains shown)
VH: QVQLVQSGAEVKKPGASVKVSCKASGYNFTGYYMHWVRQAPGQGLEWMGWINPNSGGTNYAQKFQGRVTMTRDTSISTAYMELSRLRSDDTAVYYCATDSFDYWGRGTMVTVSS
VL: LPVLTQPPSASGTPGQRVTISCSGRSSNIGSNFVYWYQQLPGTAPKLLIYRNNQRPSGVPDRFSGSKSGTSASLAISGLRSEDEADYYCATWDDNLSGVVFGGGTKLTVL
notes: phage scFv
B4: hN1S3-113 (scFv, V domains shown)
VH: B1 VH
VL: SYVLTQPPSASGTPGQRVTISCSGSSPNIGSNTVNWYQQLPGTAPKLLIYTNNQRPSGVPDRFSGSKSATSASLAISGLQFDDEADYFCAAWDDSLLGVVFGGGTKVTVL
notes: phage scFv
B5: hN1S3-052 (scFv, V domains shown)
VH: QVQLVQSGAEVKKPGASVRISCKTSGFTFTSYFIHWVRQAPGQRPEWMGVINPSRGNADYAPRFRGRVTMTRDKSTHTVYMDLKSLRSDDAAIYYCARDRLGGLLDYYDSSDSSKNFDAFDFWGQGTLVTVSS
VL: QAVLTQPSLASGTPGQRVTISCSGGSSNIGRHTVNWYQQLPGAAPKLLMHSSDQRPSGVPDRFSGSKSGTSASLAISGLQSEDEADYYCAAWDASLKNWVFGGGTKLTVL
notes: phage scFv
B6: hN1S3-126 (scFv, V domains shown)
VH: B1 VH with R106Q
VL: SYVLTQPPSASGAPGQRVTISCSGSISNIGDNTVNWYQHLPRTAPKLVIYSDVQRPSGVPERFSGSKSGTSASLVISGLQAEDEADYYCASWDDSLDGVFFGGGTKLTVL
notes: phage scFv
B7: hN1S3-146 (scFv, V domains shown)
VH: EVQLVQSGPEVKKPGTSVKVSCKASGFTFTSSAVQWVRQARGQRLEWIGWIVVGSGNTNYAQKFQERVTITRDMSTSTAYMELSSLRSEDTAVYYCVADTVYWGKGTLVTVSS
VL: QAVLTQPSSVSEAPRQRVTISCSGSSSNIGKNAVNWYQQLPGKAPKLLIYYDDLMPSGVSDRFSGSKSGTSASLAISGLQSEDEADYFCAAWDDSLSGWVFGGGTKLTVL
notes: phage scFv
B8: hN1S3-174 (scFv, V domains shown)
VH: B1 VH with R106Q, L109T
VL: QSVLTQPPSVSGAPGQRITISCTGSSSNIGAGYDVHWYQQLPGTAPKLLIYGNSYRPSGVPDRFSGSKSGTSASLAITGLQAEDEADYYCQSYDSSLTGSIFGGGTKLTVL
notes: phage scFv
B9: N1wc104 (scFv, V domains shown)
VH: QVQLQESGPGLVKPSGTLSLTCAVSGVSLATNNWWLWVRQSPGKGLEWIGEIYHSGYTNYNPSLKSRVTISVDKSSNQLSLDLRSITAADTAVYYCARRYCDNGVCYPFDHWGQGTMVTVSS
VL: SYVLTQPPSVSEAPRQTVTISCSGNSFNIGRYPVNWYQQLPGKAPKLLIYYNNLRFSGVSDRFSGSKSGTSASLAIRDLLSEDEADYYCSTWDDTLKGWVFGGGTKLTVL
notes: phage scFv
B10: hN1S3-067 (scFv, V domains shown)
VH: B5 VH with Q1E
VL: NFMLTQPHSVSESPGKTVIISCTRSSGSIASNYVQWLQQRPGSSPTTVIYDDNRRPSGVPDRFSGSIDGSSNSASLTISGLKTEDEADYYCQSYDRFDHVVFGGGTKLTVL
notes: phage scFv
B11: hN1S3-073 (scFv, V domains shown)
VH: B5 VH
VL: DIQMTQSPSSLSAFVGDRVTITCRASQGINNYLAWFQQKPGKAPKSLIYAASTLRSGVPPRFSGSGSGTDFTLTISSLQPEDFATYYCQQYDSYPHTFGQGTRLEIK
notes: phage scFv
B12: N1wc33 (scFv, V domains shown)
VH: EVQLVESGGDLVQPGGSLRLSCAASGFTFSDSWMHWVRQVPGKGLEWVSHIGIDGITTNYADSVKGRFTISRDNAKNTLYLQMNNLRAEDTAVYYCARNVGWESRPWGQGTLVTVSS
VL: SYVLTQPPSASGAPGQRVTISCSGSDSNIGRNTVNWYQQQLPGTAPTLLIYTNNQRPSGVPDRFSGSKSGTSASLAISGLQSGDEADYYCAAWDDSLNAYFFGPGTKLTVL
notes: phage scFv
B13: N1wc48 (scFv, V domains shown)
VH: QVQLVQSGAEVKKPGATVKISCKVSGYTFTDYYIHWVQQAPGKGLEWMGLVDPEDGETIYAEKFQGRVTIIADTSTDTAYMELSSLRSEDTAVYYCATGPFRLDSWGQGTMVTVSS
VL: QSVLTQPPSVSGAPGQRVTISCTGSSSNIGAGYDVHWYQQLPGSAPKLLIYGNNNRPSGVPDRFSGSKSGTSASLAITGLQAEDEADYYCQSFDNRLSDFNVFGTGTKVTVL
notes: phage scFv
B14: N1wc99 (scFv, V domains shown)
VH: QVQLVQSGAEVKKPGASVKVSCKASGYTFTSYGISWVRQAPGQGLEWMGWISAYNGNTNYAQKLQGRVTMTTDTSTSTAYMELRSLRSDDTAVYYCARLASRAFDIWGRGTLVTVSS
VL: QSVLTQPASVSGSPGQSITISCTGTSSDVGGYNYVSWYQQHPGKAPKLMIYEGSKRPSGVSNRFSGSKSGNTASLTISGLQAEDEADYYCSSYTTRSTRVFGGGTKLTVL
notes: phage scFv
B15: N1wc145 (scFv, V domains shown)
VH: B14 VH with Q1E, Q6E, S31T, A53T, N59K, L99D, S101R, R102K
VL: B14 VL with Q1H, S2V, V3I, A8R
notes: phage scFv
B16: N1wc103 (scFv, V domains shown)
VH: B1 VH with E1Q, V5Q, M81V
VL: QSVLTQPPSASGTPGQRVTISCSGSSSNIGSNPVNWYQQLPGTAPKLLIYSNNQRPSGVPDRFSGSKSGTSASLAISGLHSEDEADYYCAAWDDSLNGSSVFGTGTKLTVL
notes: phage scFv
B17: N1wc106 (scFv, V domains shown)
VH: QVQLVQSGAEVKRPGASVNLSCKASGYSFSRYYIHWVRQAPGQGLELMGRINPGGGTTTYAQKFQGRVTLSRDTSTNTIFMELNGLTSEDTAMYYCARSNYDILAGYGPDAFDFWGRGTLVTVSS
VL: QAVLTQPSSVSGAPGQRVTISCTGSSSNIGADNDVHWYQKFPGTAPKLLIFSNNNRPSGVPDRFSGSKSGTSASLAITGLQADDEADYYCQSYDSGLTRELFGGGTKLTVL
notes: phage scFv
B18: N1wc110 (scFv, V domains shown)
VH: B1 VH with R106Q, L109M
VL: QSVVTQPPSASGSPGQRVTIACSGSSSNIGSNTVNWYQHVPGTAPKLLIYNNNQRPSGVQDRFSGSKSDTSASLAISGLQAEDEAVYYCATWDDSLIGLAFGGGTKLTVL
notes: phage scFv
B19: N1wc112 (scFv, V domains shown)
VH: EVQLVESGGGLAQPGKSLRISCAASGFTFGDYAMTWVRQAPGKGLEWVSSISGSGSGTYYTDSVKGRFAISRDNSKNTLYPQMNSLAAEDTAIYFCAKDQTDVTIRDFDYWGRGTLVTVSS
VL: SYELTQPPSVSVAPGQTARISCGGDNLGRKSVHWYQQKPGQAPVLVIYEDSKRPSGIPERFSGSSSGTMATLTISGAQVEDEADYYCYSTDSSGNHRVFGGGTKVTVL
notes: phage scFv
B20: N1wc137 (scFv, V domains shown)
VH: QVQLVQSGAEVKKPGASVKVSCKASGYTFTNYGLSWVRQAPGQGLEWMGWISGYNDNTSYAQKFQDRITMTTDTSTSTASMELRSLRSDDTAVYYCAFSYYDSSGYFNWGQGTMVTVSS
VL: QAVLTQPSSVSGAPGQRVTVSCTGSSSNIGTGYAVHWYQQLPGTAPRLLIFGNNNRPSGVPDRFSGSKSGTSASLVITGLQAEDEADYYCQSFDTLSGSRVFGGGTKVTVL
notes: phage scFv
B21: N1wc140 (scFv, V domains shown)
VH: QVQLQQSGAEVKKPGSSVKVSCRASGGTFSNYAISWVRQAPGQGLEWMGRIIPIFGGAHYAQKLQGRVSITADESTSTAHMELSSLRSEDAAVYYCASGAYYDVMGNYPYSGMDVWGRGTLVTVSS
VL: SYVLTQPPSVSVSPGQTAKITCGGDKIETKSVHWYQQKPGQAPVLVIYEDTKRPSGISERLSGSSAGTVATLTITGAQVDDEADYFCYSTDATGTERVFGGGTKLTVL
notes: phage scFv
B22: N1wc142 (scFv, V domains shown)
VH: B17 VH with Q1E, R13K, L120M
VL: QSVLTQPPSVSGAPGQRVTISCIGSNSNIGAGHDVHWYQQFPGTAPKLLIYDNTNRPSGVPDRFSGSKSGTSVSLAITGLQAEDEADYYCQSYDSSLGEVFGGGTKLTVL
notes: phage scFv
B23: N1wc152 (scFv, V domains shown)
VH: QVQLVQSGGGLVQPGGSLRLSCGASGFTFSSHWMSWVRRPPGRGLEWVANINEGGSAEYYADSLKGRFTISRDNAKNSLFLQMDSLRAEDTAVYYCVRDQFHSNYDWGQGTMVTVSS
VL: QAVLTQPSSVSGAPGQRVTISCTGSSSNIGAPFDVHWYQQLPGTAPKLLIYGNSNRPSGVPDRFSGSKFGTSASLAITGLQAADEADYYCQSYDSSLSGWVFGGGTKLTVL
notes: phage scFv
B24: N1wc157 (scFv, V domains shown)
VH: QVQLVQSGAGLKRPGTSVKISCKTSGYIFSQYPMHWVRQAPGQGLEWVAWVDTGNGTTRYSPNFQGRATVSGDTSANTGYLELRSLRFTDTAVYYCATNAFDYWGRGTLVTVSS
VL: SYELTQPPSVSVSPGQTARITCSGDALPDKYVHWYQQKSGQAPVLVLFDDSKRPSGIPERFSGSSSGTVATLIISGAQVEDEGDFFCYSTDSSGNERVFGGGTKLTVL
notes: phage scFv

The binders below were run against T1, human full-length Notch1 with C-terminal FLAG tag, stably expressed on 293 FlpIn (TREx) cells (human, UniProt P46531 19-2555) (assay: FACS, phage scFv).
T1 construct: tetracycline/doxycycline-induced expression from pcDNA5/FRT/TO-HN1+FLAG; also called hN1; 293_N1
B1: binds.
B2: binds.
B3: binds.
B4: binds.
B5: binds.
B6: binds.
B7: binds.
B8: binds.
B9: binds.
B10: binds.
B11: binds.
B12: binds.
B13: binds.
B14: binds.
B15: binds.
B16: binds.
B17: binds.
B18: binds.
B19: binds.
B20: binds.
B21: binds.
B22: binds.
B23: binds.
B24: binds.
